Data set [1] concerns the target T1, S. pneumoniae GAPN (Streptococcus pneumoniae, UniProt A0A0H2ZNN4).
T1 construct: N-terminal 6xHis tag, pET21b (NdeI), E. coli BL21(DE3); tag removal not mentioned; homotetramer; catalytic C283
Briefly: UV kinetics at […] nm, varied G3P with fixed E4P ([…]). The format is biochemical.

The target of data set [2] is T1, S. pneumoniae GAPN. As to the kind of experiment: isothermal titration calorimetry. The data set is classed as binding. (In ITC the heat of successive injections is recorded.)
For data set [3], the system named is NC(=O)c1ccc[n+]([C@@H]2O[C@H](COP(=O)(O)OP(=O)(O)OC[C@H]3O[C@@H](n4cnc5c(N)ncnc54)[C@H](O)[C@@H]3O)[C@@H](O)[C@H]2O)c1. Briefly: purified protein. The following applies: pH 8.5, 25°C, 1.0 mM G3P (Figure 2 legend says 500 μM), 20 μM GAPN, varied: cofactor.
The test system of data set [4] is O=C[C@H](O)COP(=O)(O)O. Briefly: purified protein. The settings on record: pH 7.5, 25°C, 1.0 mM NADP+, 40 nM GAPN.
Data set [5] concerns NC(=O)c1ccc[n+]([C@@H]2O[C@H](COP(=O)(O)OP(=O)(O)OC[C@H]3O[C@@H](n4cnc5c(N)ncnc54)[C@H](OP(=O)(O)O)[C@@H]3O)[C@@H](O)[C@H]2O)c1. Briefly: purified protein. The settings on record: pH 7.5, 25°C, 1.0 mM G3P, 40 nM GAPN, varied: cofactor.
Data set [6] deals with the molecule itself. Briefly: cryo-EM structure; purified GAPN at 90 uM in 50 mM HEPES pH 7.5, 50 mM NaCl, 2 mM DTT; alone (apo), with 1 mM NADP+ (holo) or with 1 mM G3P; single particle reconstruction.

Read-outs that look alike come from different tables or passages of the source.

The term Ki denotes a dissociation constant, usually derived from enzyme kinetics or from competition with a known ligand. High values mean weaker binding, low ones tighter binding. With `O=C[C@H](O)[C@H](O)COP(=O)(O)O` [E4P], in data set [1], the Ki amounted to 25.7 ± 7.2 µM.

For the molecule `O=C[C@H](O)COP(=O)(O)O` [G3P], in data set [2] (read-out: K D), the Kd amounted to 0.053 ± 0.036 µM.

For the molecule `NC(=O)c1ccc[n+]([C@@H]2O[C@H](COP(=O)(O)OP(=O)(O)OC[C@H]3O[C@@H](n4cnc5c(N)ncnc54)[C@H](OP(=O)(O)O)[C@@H]3O)[C@@H](O)[C@H]2O)c1` [NADP^+], the Kd in data set [2] came to 51 ± 32 µM.

In general, Km refers to the substrate concentration at which the rate is half of its maximum. One may read the kcat as the maximal rate divided by the concentration of active sites. What is called Vmax is the rate approached at saturating substrate. As to “S. pneumoniae GAPN (Streptococcus pneumoniae D39)”, the Km in data set [3] was found to be 7200 ± 2000 µM; in data set [4], 88 ± 17 µM; in data set [5], 119 ± 12 µM. In addition, the values for the kcat in data set [3], in data set [4] and in data set [5] were 0.4 ± 0.1 s⁻¹, 14.5 ± 0.7 s⁻¹ and 14.2 ± 0.6 s⁻¹, respectively. For the same molecule, the Vmax in data set [4] worked out at 580 ± 30 nM/s; in data set [5], 570 ± 20 nM/s.

B1: Streptococcus pneumoniae GAPN (non-phosphorylating glyceraldehyde-3-phosphate dehydrogenase) (enzyme, S. pneumoniae strain D39)
chain: MTRYQNLVNGKWKSSEQEITIYSPINQEELGTVPAMTQTEADEAMQAARAALPAWRALSAIERAAYLHKTAAILERDKEKIGTILAKEVAKGIKAAIGEVVRTADLIRYAAEEGLRITGQAMEGGGFEAASKNKLAVVRREPVGIVLAIAPFNYPVNLSASKIAPALIAGNVVMLKPPTQGSISGLLLAKAFEEAGIPAGVFNTITGRGSEIGDYIIEHKEVNFINFTGSTPIGERIGRLAGMRPIMLELGGKDAALVLEDADLEHAAKQIVAGAFSYSGQRCTAIKRVIVLESVADKLATLLQEEVSKLTVGDPFDNADITPVIDNASADFIWGLIEDAQEKEAQALTPIKREGNLLWPVLFDQVTKDMKVAWEEPFGPVLPIIRVASVEEAIAFANESEFGLQSSVFTNDFKKAFEIAEKLEVGTVHINNKTQRGPDNFPFLGVKGSGAGVQGIKYSIEAMTNVKSIVFDVK
notes: GAPN, non-phosphorylating glyceraldehyde-3-phosphate dehydrogenase of S. pneumoniae strain D39; gapn gene PCR amplified from genomic DNA; UniProt A0A0H2ZNN4_STRP2; The gene was inserted with an N-terminal 6xHis tag into NdeI-cleaved pET21b; Homotetramer in the cryo-EM structures
For orientation: stoichiometry N means a count of units in the complex or per binding partner. For B1, in data set [6], the “stoichiometry N” value is 4.

Values taken from paper PMC11633051, “Streptococcus pneumoniae GAPN is a key metabolic player necessary for host infection” (Protein Science : A Publication of the Protein Society, 2024).
